Data published in the DeepSol protein solubility set.

Assay: soluble on expression in E. coli; label from the status in PepcDB or PDB records

Sequence	soluble on expression in E. coli
MNEDIDMLIIANDLKQRGRKSIISGKFIFINMANEYEYVVYPVNENKTLSVKELEEFVDFSNRIKKKGVIAIVDKYGDVTYYLLSEINLGKK	soluble
MENVEKRLIQLFTTYLNKAKHHMQGGSDMPNELVIGLHCRGEFESHRSWMQPRVQRGLEERMLFSSHKRAQIYKEAATSSLVAASSAPGEVREG	soluble
MSLASKPSLLFVDDSKVMRLAADKMLGREFRVEVAENGLQAWTMVCHNPSISVVFSDLAMPEMDGFALLKKIRTSEDEGVAGLPVIIVTGAENDDEARAEALRLGGTDFISKPFNSTDLLARARAHANYQNERKEFAKQAMIDPLTRLGNRRYLLHRLRQELALAARQQYRLSVVQLEICQFNQLFVQLGKKRTDMVLLKLAQSLRGVIRKEDSLARSSVAQFTVLLPSAGPNGAKRFVERALKVSERLAFQFRGKVQRLPLTVIIHTPAVHAGLAPRQVQLALEEQLKQARKLGPGTVLSDDADTTLSVDESAPILTIEQALVLLRAGKPRAVVSALPDLERQLAPLLELMKRSASDQEGHHHHHH	not soluble
MGSDKIHHHHHHMKLVDSIYGTYTVEPVISELIDSAPVQRLKGIHQGGACYIVKPSWNVTRFEHSIGVMLLIRKLGGSLEEQIAGLLHDVSHTAFSHVIDYVLAEEEEDYHEQIYEQVIRASEIPHILDKYGFDLERIVLNHSCWTLLEQPSPSLCADRIDYTLRDLYTYGHINKQEVDDFIANLIVVDGIISTSSVAGAEWFVRAYYKEVIDFFLDPLNVYGSSVLTSVLKSAVERKALGLDDFLKTDEELMEQLQRLNDDSIQKQLATLHPHVNVRENENHYHIHKTNKLRLIDPHVYLDGTFQRISSLSKQVKKWNEEAQRRADRGAYVEVLSS	not soluble
MGSDKIHHHHHHMENLLEVQQLNKSYKNSEFQLTDITFSVKPGEVVGLIGKNGSGKSTLINTLVGNRHKDNGSLKFFNKEVTENDFKYKEHLGVVFDDLRVPDKLTLQSINKVFTEIYDAWNSDTFFSLIKAFELPTNNQIKTFSRGMRMKAALTIALSHDAKLLILDEATAGMDVSGREHVLEILEDYLGDDRAILISSHISEDIEQLATQLVFMRDGRIILKESKEVLLSQYGIIDQPVEHFNISNEYLIATRRRNDRQISLVNNYQKVPDAQPLKTIDDATKIIMRGEV	not soluble
MGSDKIHHHHHHNEDDIFDESSAQRAIASVNECQEILKGAANGWLLEYYTGEDGEYGGFNVLARFDGNNVIMAADFATDNYEIGEESTSLYKVESYQGTELSFDSYNELIHEFCEPSGYNSPGYAGDYEFVFRSVSKEKIVLTGKKHGVTLIMTPLPAETNWQEKLTNIANVVSQASYVTYKLIVNGQEITKMGQEEHAFSVTKVDETGETTVSLYPFIYTEEGIKMYEPLVVNGVEINNFKWDNENLTYICTDTGVDAKIEFYCPEGYLNYLGNYILQLANGQRIQLELKQKMIGKSFAMNFALSGTPIEFVYNYNMTTDCIDVPSQTVGVYQGYNVLLYPGIPGGNFYADDSAVFQGRIANTDPLTIKFTYVNNPICTLMLLVYQKTDGWYGFSTMFQDVTLIKVD	not soluble
MPPKQQLSKAAKAAAALAGGKKSKKKWSKKSMKDRAQHAVILDQEKYDRILKEVPTYRYVSVSVLVDRLKIGGSLARIALRHLEKEGIIKPISKHSKQAIYTRATASE	soluble
GSPGGSLFVALYDFVASGDNTLSITKGEKLRVLGYNHNGEWCEAQTKNGQGWVPSNYITPVS	soluble
MELLCPAGNLPALKAAIENGADAVYIGLKDDTNARHFAGLNFTEKKLQEAVSFVHQHRRKLHIAINTFAHPDGYARWQRAVDMAAQLGADALILADLAMLEYAAERYPHIERHVSVQASATNEEAINFYHRHFDVARVVLPRVLSIHQVKQLARVTPVPLEVFAFGSLCIMSEGRCYLSSYLTGESPNTIGACSPARFVRWQQTPQGLESRLNEVLIDRYQDGENAGYPTLCKGRYLVDGERYHALEEPTSLNTLELLPELMAANIASVKIEGRQRSPAYVSQVAKVWRQAIDRCKADPQNFVPQSAWMETLGSMSEGTQTTLGAYHRKWQ	soluble
MGHHHHHHSHMSLTTSHFIPFPREMVWDWHTRKGAVARLTPPFIPLNPITQAERLADGTTIFSLPAGLKWVARHDLSGFLNGSRFTDVCLTAPVKALANWRHVHNFVDQDGGTLITDSVSTRLPASTLTGMFAYRQTQLIEDLKF	not soluble
GMTSTSITAVEYQSKRLESRLLKETREYVIALPEGYAQSLEAYPVVYLLDGEDQFDHMASLLQFLSQGTMPQIPKVIIVGIHNTNRMRDYTPTHTLVLPSGNKGNPQYQHTGGAGRFLDFIEKELAPSIESQLRTNGINVLVGHSFGGLVAMEALRTDRPLFSAYLALDTSLWFDSPHYLTLLEERVVKGDFKQKQLFMAIANNPLSPGFGVSSYHKDLNLAFADKLTKLAPKGLGFMAKYYPEETHQSVSHIGLYDGIRHLFKDFAIDIYSDSFSKQQVIDQYGVLSERFGHKVTPSQQYLEQLIQYSDRQQLTERKQMLEGLRQHFAKD	soluble
SNEFFPVDDNNEGTDADMKEDSEGPEPKGLSPPHKKSKAKKPESSKDSSEDESGPEEKQTAEEMEGQSQEADGVNTTPVPSPASEDKAEVHKDEADSAKDDNTVKDSDMTNHSVCDQELPNGQENDSAKSEGKTEAESPSSSMETEDLSPNQEDAAIVEQPEVIPLIDDQEAQEGGEAQGKDAPAVFAESQGSSEAENTSGPDVDMNSQVDGVNEPTESLQEDLQ	not soluble
MSAQKPGLHPRNRHQHRYDLAALCQTTPELTSFLIRTPAGEQSVDFANPQAVKALNKALLAHFYAVTHWDIPPGFLCPPVPGRADYIHHLADLLGETTGSIPAQATILDVGVGANCIYPLIGVHEYGWRFTGSEVSDAAMSSAQAIIQANTGLSRAIRLRRQKDPAAIFTGIIHKNEFYDATLCNPPFHDSAAAARAGSERKRRNLGQNKDDALNFGGQQQELWCEGGEVAFIKKMIAESQTFRRQVLWFTTLVSRGENLPPLYRALTEAGAVKVVKKEMAQGQKQSRFIAWTFMDDDQRRRFITRKRLEHHHHHH	soluble
MEVKMPFVVFVKRSVRFPGKHSYMIGGKSLLEIIVSKLSNIGKVYVFTKDKDIICNGCSIEFDTTNGIITDSVLAAIDKFGTFFAVAGDMPLIKPELVSKMLSQYKGSPLFPRHMDGMLEPLFGIYTEDLYNALKEYLDKGGESLHAFLLTQPLQYYDIGSDDEVNFININYKSDIEKYRDLLVQLLEHHHHHH	soluble
MESRYVLTGRYDSAPATDGSGTALGWTVAWKNNYRNAHSATTWSGQYVGGAEARINTQWLLTSGTTEANAWKSTLVGHDTFTKVKPSAASGGGSAEAGITGTWYNQLGSTFIVTAGADGALTGTYESA	soluble
MTKDRQIKKTKTAIYSAFIALLQKKEYSKITVRDMITLANVGRSTFYAHYESKEMLLKELCEELFHHLFRQKRNVTFEDYLVHILKHFEQNKDSIATLLLSNDPYFLLRFKNELEHDVYPNLRCKYIDKTTIPEVFLKQFVLSSFIETLKWWLHQRQRMSANELLKYYLELIK	soluble
MTSQPLRVGIGGPVGSGKTALTLALCRELRERYNLAVVTNDIYTQEDAEFLVRNEALAPERIIGVETGGCPHTAIREDASINLEAVDQLNRRFPGLELILVESGGDNLSATFSPELSDLTLYVIDVSAGDKIPRKGGPGICKSDLLVINKIDLAPLVGASLDVMDRDARRMRGDKPFVFSNQKTGQGLDEIIAFIERQGLLTAA	not soluble
MSECSASTSQLSTFCVNEIPWKLVPQTCDEFSEYEFIDEKYRRLSDVESFVWKWSPCGRYGIDLPGGRDVINQQLRDRMAVFDLHTNKWTLYTMDRGAFEIPRVCFLYWARNDIIGTITLVKDYEAGPDDEIPLKFKQSFFYVSHETQTLVYSGSCKYRTNKTIVASYWYHIFENRRGEPFIDHNNYLWLVFSNGVDSLILLPFIPTSTCFKAKCVSFDMNDIVSQFTGIRVFLDPFVSSHYVPWVYRNDVNFFIRIDSHSFIEEQNRDYGLDPQIDNPETKPHRGVFQLRVNLKDVIEKGEKDAIHAVNPETIETRFNRGDIELWRKISDELRQEHQSIAQHGKMVVVQRWSHFTVDMGLSKKMRTRVADLDARDYCCSHKPRNSSFCCIDLDSERIKAVDALILGTDVVLPHPSGSVFLFRYKENYGMSYCELPFFQPLSLKLKCIQVLKESVEIDPSYYRIKCCLKMQEELEKETAENLCTINIQQ	not soluble
MAHHHHHHMTMAVDSHDPSVRYLFFEEQRQQKQQKQQVPVDGTSSGSLPLLYSARPACHPVDDVRSAAALRRITEGFLNLDQQMKMWRRHLHRKLGNLESRLSRCESVLLQKKTPVPQPAVVKASTTTYNDIYDGVEDEFKRLHLTVTALREKAAECCRDGQSFFPPKRQGKKGKGEPAGKHAMCDDEDVSIEGGGVFDSHCEHVGVAKRMSPTADTTAVGSGESVGLTPDGAEMPSACLFLGETVVDGDWQHVEGMQPREASCCLYKLQNQSSFQPTPSFSTMTPVSEQKYFAMDSTCRHDWSPFIHEPCRPEKRIVRGGKPATMDKTPTNVPDLRMRSTATTTQEKCCEINESPLVQASSLERRLIYSPETPKRMQGQVSPVPSDAARSASSSTKRGMEIPLSNADSVEHLHNLAEPALSSKPVTNGQKRPDATPSSQHGGAFVDAFASAVAGVPSSSPLYVLPQQIYSSRGNSCDRSSEWDNTEDEEKASESSNEEVLSAVALSMPTVGTVWQRVVSLAHAEQYYDQLSRLNHPPLSMLSSDTLEISELTVQET	not soluble
MALVFVYGTLKRGQPNHRVLRDGAHGSAAFRARGRTLEPYPLVIAGEHNIPWLLHLPGSGRLVEGEVYAVDERMLRFLDDFESCPALYQRTVLRVQLLEDRAPGAEEPPAPTAVQCFVYSRATFPPEWAQLPHHDSYDSEGPHGLRYNPRENR	soluble
MITTRTAKQCGQADYGWLQARYTFSFGHYFDPTLLGYASLRVLNQEVLAPGASFQPRTYPKVDILNLILDGEAEYRDSDGNHVQAKAGEALLLAAQPGISYSEHNISKVKPLTRMQLWLDACPERENTLVQKIPLLAAQQQLLASPDGEQNSLQLRQQVWVHHITLEKGESLNFQLHGPRAYLQSIHGTFHAMTHNEEREALTCGDGAFIRDEPNITLVADTPLRALLVDLPV	not soluble
MGFAFKRGISTPDLALITRQLATLVQSGMPLEECLRAVAEQSEKPRIRTMLVAVRAKVTEGYTLSDSLGDYPHVFDELFRSMVAAGEKSGHLDSVLERLADYAENRQKMRSKLQQASENLYFQ	soluble
MLPKAARIPHAMTLHGDTRIDNYYWLRDDTRSQPEVLDYLQQENSYGHRVMASQQALQDRILKEIIDRIPQREVSAPYIKNGYRYRHIYEPGCEYAIYQRQSAFSEEWDEWETLLDANKRAAHSEFYSMGGMAITPDNTIMALAEDFLSRRQYGIRFRNLETGNWYPELLDNVEPSFVWANDSWIFYYVRKHPVTLLPYQVWRHAIGTPASQDKLIYEEKDDTYYVSLHKTTSKHYVVIHLASATTSEVRLLDAEMADAEPFVFLPRRKDHEYSLDHYQHRFYLRSNRHGKNFGLYRTRMRDEQQWEELIPPRENIMLEGFTLFTDWLVVEERQRGLTSLRQINRKTREVIGIAFDDPAYVTWIAYNPEPETARLRYGYSSMTTPDTLFELDMDTGERRVLKQTEVPGFYAANYRSEHLWIVARDGVEVPVSLVYHRKHFRKGHNPLLVYGYGSYGASIDADFSFSRLSLLDRGFVYAIVHVRGGGELGQQWYEDGKFLKKKNTFNDYLDACDALLKLGYGSPSLCYAMGGSAGGMLMGVAINQRPELFHGVIAQVPFVDVVTTMLDESIPLTTGEFEEWGNPQDPQYYEYMKSYSPYDNVTAQAYPHLLVTTGLHDSQVQYWEPAKWVAKLRELKTDDHLLLLCTDMDSGHGGKSGRFKSYEGVAMEYAFLVALAQGTLPATPAD	not soluble
